A value given as a limit tells only on which side of the number the result lay.

The results in this text go back to patent US20220195063A1 (BYONDIS B V, published 2022).

The target of assay [1] is human SIRPαBIT expressed on cells (human) (UniProt P78324). The assay can be described thus: flow cytometry, U937 cells. On the technique in general: A flow cytometer gives signals particle by particle.
Assay [2] shares this target. Kind of assay: flow cytometry, ExpiCHO-S cells.
The target in assay [3] is human SIRPαBIT (huSIRPαBIT), protein antigen (human) (UniProt P78324). Kind of assay: SPR, biotinylated antigen captured, 25 C. For orientation: SPR reads the build-up and loss of mass on a sensor chip optically.
For assay [4], the target named is T1, human SIRPα1 expressed on cells (human, UniProt P78324 31-504).
T1 construct: whole, on cells; also called ExpiCHO-S (huSIRPα1); CHO cells expressing huSIRPα1
The assay can be described thus: flow cytometry, ExpiCHO-S cells. The text has this:
(§1) Flow Cytometry: U937 cells endogenously expressing human SIRPαBIT antigen and cells derived from a non-engineered subclone that has been screened and isolated from CHO-S Chinese hamster ovary cells (ExpiCHO-S) cells expressing human SIRPα₁, SIRPαBIT or cySIRPα antigen (100,000 cells/well in a 96-well plate) were washed three times with ice-cold FACS buffer (1×PBS (LONZA) containing 0.2% v/w BSA (Sigma-Aldrich, St. Louis, Mo.) and 0.02% v/w NaN₃ (Sigma-Aldrich), followed by the addition of a concentration range of each primary mAb (50 μL/well) diluted in ice-cold FACS buffer. After an incubation time of 30 min at 4° C., the cells were washed three times with ice-cold FACS buffer and 50 μL/well secondary mAb (AffiniPure F(ab′)₂ fragment Goat-anti-human IgG-APC, 1:6,000 dilution, Jackson Immuno Research) was added. After 30 min at 4° C., cells were washed twice and resuspended in 150 μL FACS buffer. Fluorescence intensities were determined by flow cytometry (BD FACSVerse, Franklin Lakes, N.J.) and indicated as the median fluorescence intensity (MFI-Median) for U937 cells and ExpiCHO-S cells. Curves were fitted by nonlinear regression using the sigmoidal dose-response equation with variable slope (four parameters) in GraphPad Prism (version 7.02 for Windows, GraphPad, San Diego, Calif.). EC₅₀ values were calculated as the concentration in μg/mL that gives a response half way between bottom and top of the curve, when using a 4-parameter logistic fit.

Assay [5] concerns the target T2, cynomolgus SIRPα expressed on cells (cynomolgus monkey, UniProt A0A2K5VYQ9 31-507).
T2 construct: whole, on cells; also called ExpiCHO-S (cySIRPα)
T2 sequence: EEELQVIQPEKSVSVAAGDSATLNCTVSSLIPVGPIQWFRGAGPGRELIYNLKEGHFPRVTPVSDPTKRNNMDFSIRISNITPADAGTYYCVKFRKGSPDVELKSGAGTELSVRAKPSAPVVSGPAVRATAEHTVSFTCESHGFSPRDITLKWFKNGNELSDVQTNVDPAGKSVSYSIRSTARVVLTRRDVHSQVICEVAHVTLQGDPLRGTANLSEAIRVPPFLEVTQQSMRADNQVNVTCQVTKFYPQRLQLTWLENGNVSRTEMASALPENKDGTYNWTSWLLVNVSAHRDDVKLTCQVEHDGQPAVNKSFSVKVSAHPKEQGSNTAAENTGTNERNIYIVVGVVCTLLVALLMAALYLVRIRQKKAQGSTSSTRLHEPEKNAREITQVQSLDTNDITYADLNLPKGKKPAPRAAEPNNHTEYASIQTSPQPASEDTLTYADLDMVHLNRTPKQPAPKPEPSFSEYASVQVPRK
The assay can be described thus: flow cytometry, ExpiCHO-S cells.
Source text: as §1

Assay [6] concerns the target T3, human SIRPα1 (huSIRPα1), protein antigen (human, UniProt P78324 31-370, limits assumed, biotinylated in the SPR assay).
T3 construct: Coated on the plate in ELISA, biotinylated and captured in SPR; also called v2
The assay can be described thus: SPR, biotinylated antigen captured, 25 C. On the procedure:
(§2) Surface Plasmon Resonance (SPR) assay: Affinity analysis was performed by single cycle kinetics analysis on a Surface Plasmon Resonance apparatus (Biacore T200 system, GE Life Sciences) at 25° C. Biotinylated SIRP antigens were captured on the surface of a chip suitable for biotinylated molecules (Sensor Chip CAP, GE Life Sciences) by injecting 5 μg/ml of the SIRP antigen in running buffer (10 mM HEPES buffer at pH 7.4 with 150 mM NaCl, 3 mM EDTA and 0.005% v/v polyoxyethylene (20) sorbitan monolaurate (Surfactant P20) for 60 sec at 10 μL/min after injection of a streptavidin conjugate (20× diluted biotin CAPture reagent, GE Life Sciences) for 60 sec at 10 μl/min. Baseline stabilization was set at 1 min after which five increasing concentrations of an anti-SIRP antibody in running buffer (10 mM HEPES buffer at pH 7.4 with 150 mM NaCl, 3 mM EDTA and 0.005% v/v polyoxyethylene (20) sorbitan monolaurate) were injected. For each step an association time of 150 sec was used, followed by a dissociation time of 1200 sec at the highest concentration only, all at a flow rate of 30 μL/min. Regeneration was performed with 6 M guanidine-HCl, 0.25 M NaOH solution (60 sec with flow rate of 30 μL/min). Double blank subtraction was performed on the observed sensorgrams using a non anti-SIRP (blank) immobilized reference flow channel and running buffer injection. Sensorgrams were fitted with a 1:1 Langmuir model for all tested anti-SIRP antibodies. The kinetic parameters (kₐ, kd and KD) were calculated using the Biacore T200 evaluation software (v3.1).

The target in assay [7] is T4, human SIRPγ (huSIRPγ) (human, UniProt Q9P1W8 29-360, limits assumed, biotinylated in the SPR assay).
T4 construct: Coated on the plate in ELISA, biotinylated and captured in SPR
The assay can be described thus: SPR, biotinylated antigen captured, 25 C. On the procedure: as §2

Assay [8] addresses human SIRPαBIT (huSIRPαBIT), protein antigen (human) (UniProt P78324). The assay can be described thus: ELISA, antigen coated. Background: An ELISA detects its analyte on a solid surface through an enzyme-linked reagent.
In assay [9] the target is human SIRPβ1v1 (huSIRPβ1v1) (human) (UniProt O00241). Kind of assay: ELISA, antigen coated.
Assay [10] has as its target T3, human SIRPα1 (huSIRPα1), protein antigen. The assay can be described thus: ELISA, antigen coated. As to the method:
(§3) ELISA assay: Solutions of huSIRPα₁, huSIRPαBIT, huSIRPβ₁ᵥ₁, huSIRPβ₁ᵥ₂, huSIRPγ and cySIRPα in phosphate buffered saline (PBS) were each added to a multiple well black polystyrene plate for ELISA and allowed to adhere for 1 h at RT. Unbound protein was removed with three washing steps using standard washing buffer. Subsequently, blocking buffer was added to the wells. After 1 h incubation at RT, the wells were washed three times with standard washing buffer. The antibodies in buffer at various concentrations were added to the wells and incubated at RT for 1 h. Unbound antibodies were removed with three washing steps using standard washing buffer. Goat anti human IgG (Fab′)₂:horse radish peroxidase (HRP) in buffer was added to the wells and incubated at RT for 1 h. 3,3′,5,5′-Tetramethylbenzidine (TMB) was added and after sufficient colour development HCl was added. Absorbance was read at 450 nm/620 nm.

The target in assay [11] is T5, human SIRPβ1v2 (huSIRPβ1v2) (human, UniProt Q5TFQ8 30-371).
T5 construct: Coated on the plate in ELISA; Only the Ensembl protein number is printed; also called huSIRPß1v2
Kind of assay: ELISA, antigen coated. As to the method:
as §3

The target in assay [12] is T4, human SIRPγ (huSIRPγ). The assay can be described thus: ELISA, antigen coated. On the procedure:
as §3

Assay [13] concerns the target T6, cynomolgus SIRPα (cySIRPα), protein antigen (cynomolgus monkey, UniProt A0A2K5VYQ9 31-369).
T6 construct: Coated on the plate in ELISA
T6 sequence: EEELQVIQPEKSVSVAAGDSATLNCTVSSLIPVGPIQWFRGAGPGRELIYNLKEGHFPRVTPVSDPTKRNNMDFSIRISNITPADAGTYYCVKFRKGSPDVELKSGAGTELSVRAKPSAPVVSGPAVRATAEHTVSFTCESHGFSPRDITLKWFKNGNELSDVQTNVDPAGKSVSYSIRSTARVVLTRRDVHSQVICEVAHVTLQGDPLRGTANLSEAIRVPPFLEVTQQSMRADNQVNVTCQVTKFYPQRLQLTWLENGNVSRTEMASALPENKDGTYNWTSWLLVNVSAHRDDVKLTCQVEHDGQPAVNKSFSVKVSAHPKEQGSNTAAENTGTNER
The assay can be described thus: ELISA, antigen coated. On the procedure:
as §3

T1 sequence (P78324 other isoform, or with tags, fused parts or gaps limits assumed): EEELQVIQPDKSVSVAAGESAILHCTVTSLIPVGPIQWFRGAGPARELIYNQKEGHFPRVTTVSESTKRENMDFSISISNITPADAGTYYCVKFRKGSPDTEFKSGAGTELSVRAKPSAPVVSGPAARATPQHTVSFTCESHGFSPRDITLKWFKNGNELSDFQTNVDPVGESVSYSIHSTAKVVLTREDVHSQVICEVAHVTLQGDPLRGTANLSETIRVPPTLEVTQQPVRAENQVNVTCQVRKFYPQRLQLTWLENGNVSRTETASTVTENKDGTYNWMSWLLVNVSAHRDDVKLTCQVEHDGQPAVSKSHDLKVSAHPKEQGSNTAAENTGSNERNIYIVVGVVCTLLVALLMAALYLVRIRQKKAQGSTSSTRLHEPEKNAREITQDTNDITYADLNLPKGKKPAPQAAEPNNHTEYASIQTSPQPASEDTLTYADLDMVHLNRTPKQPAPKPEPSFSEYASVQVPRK
Sequence of human SIRPαBIT (huSIRPαBIT), protein antigen (human) (P78324 31-370): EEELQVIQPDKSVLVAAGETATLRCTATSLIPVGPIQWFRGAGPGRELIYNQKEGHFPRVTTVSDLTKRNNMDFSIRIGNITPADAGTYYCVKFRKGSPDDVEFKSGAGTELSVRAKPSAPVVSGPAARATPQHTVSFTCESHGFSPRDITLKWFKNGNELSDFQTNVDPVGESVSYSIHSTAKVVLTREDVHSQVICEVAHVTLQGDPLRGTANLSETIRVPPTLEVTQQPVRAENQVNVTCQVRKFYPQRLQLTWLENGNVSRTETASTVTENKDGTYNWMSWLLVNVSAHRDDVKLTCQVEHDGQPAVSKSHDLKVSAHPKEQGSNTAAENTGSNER
T3 sequence (P78324 other isoform, or with tags, fused parts or gaps limits assumed): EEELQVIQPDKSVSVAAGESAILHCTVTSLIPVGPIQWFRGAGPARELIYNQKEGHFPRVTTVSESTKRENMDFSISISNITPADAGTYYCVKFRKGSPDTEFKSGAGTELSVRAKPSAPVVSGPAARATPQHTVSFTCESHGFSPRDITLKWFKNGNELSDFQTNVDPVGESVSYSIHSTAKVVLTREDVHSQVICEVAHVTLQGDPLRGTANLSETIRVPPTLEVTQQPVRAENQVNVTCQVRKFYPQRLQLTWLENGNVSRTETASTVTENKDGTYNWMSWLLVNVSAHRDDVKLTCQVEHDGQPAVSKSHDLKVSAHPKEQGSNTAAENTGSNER
Sequence of human SIRPαBIT expressed on cells (human) (P78324 31-504): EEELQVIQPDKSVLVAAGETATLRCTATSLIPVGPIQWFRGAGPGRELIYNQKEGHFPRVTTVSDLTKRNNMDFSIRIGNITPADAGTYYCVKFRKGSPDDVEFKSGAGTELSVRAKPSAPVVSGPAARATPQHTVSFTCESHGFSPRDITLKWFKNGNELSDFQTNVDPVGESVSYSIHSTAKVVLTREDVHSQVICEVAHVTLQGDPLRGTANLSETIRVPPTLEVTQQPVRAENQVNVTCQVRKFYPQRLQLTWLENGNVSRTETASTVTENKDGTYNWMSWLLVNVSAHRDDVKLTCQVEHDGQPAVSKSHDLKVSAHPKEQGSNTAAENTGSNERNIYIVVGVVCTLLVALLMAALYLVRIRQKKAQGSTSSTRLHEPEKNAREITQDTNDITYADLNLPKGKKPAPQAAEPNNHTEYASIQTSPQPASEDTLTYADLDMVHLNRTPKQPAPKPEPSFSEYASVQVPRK
T4 sequence (Q9P1W8 29-360 limits assumed): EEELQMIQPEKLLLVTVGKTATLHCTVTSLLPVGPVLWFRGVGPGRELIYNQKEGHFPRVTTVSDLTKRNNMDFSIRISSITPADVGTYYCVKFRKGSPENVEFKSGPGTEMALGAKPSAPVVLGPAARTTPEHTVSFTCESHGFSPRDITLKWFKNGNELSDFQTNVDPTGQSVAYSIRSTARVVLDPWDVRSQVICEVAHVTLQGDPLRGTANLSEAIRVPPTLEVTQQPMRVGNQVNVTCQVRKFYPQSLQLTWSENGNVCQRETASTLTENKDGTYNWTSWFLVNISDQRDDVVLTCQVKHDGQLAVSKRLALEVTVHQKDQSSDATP
T5 sequence (Q5TFQ8 30-371 limits assumed): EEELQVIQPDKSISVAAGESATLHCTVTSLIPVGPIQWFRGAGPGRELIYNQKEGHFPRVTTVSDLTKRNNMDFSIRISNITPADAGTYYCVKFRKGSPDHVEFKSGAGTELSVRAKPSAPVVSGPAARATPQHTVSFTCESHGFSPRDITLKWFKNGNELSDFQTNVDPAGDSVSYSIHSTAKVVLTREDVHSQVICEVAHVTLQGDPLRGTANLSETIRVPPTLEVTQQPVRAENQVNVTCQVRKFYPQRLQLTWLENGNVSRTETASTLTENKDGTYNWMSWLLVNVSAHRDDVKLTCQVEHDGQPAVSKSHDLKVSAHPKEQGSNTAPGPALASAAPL
Sequence of human SIRPβ1v1 (huSIRPβ1v1) (human) (O00241 30-371): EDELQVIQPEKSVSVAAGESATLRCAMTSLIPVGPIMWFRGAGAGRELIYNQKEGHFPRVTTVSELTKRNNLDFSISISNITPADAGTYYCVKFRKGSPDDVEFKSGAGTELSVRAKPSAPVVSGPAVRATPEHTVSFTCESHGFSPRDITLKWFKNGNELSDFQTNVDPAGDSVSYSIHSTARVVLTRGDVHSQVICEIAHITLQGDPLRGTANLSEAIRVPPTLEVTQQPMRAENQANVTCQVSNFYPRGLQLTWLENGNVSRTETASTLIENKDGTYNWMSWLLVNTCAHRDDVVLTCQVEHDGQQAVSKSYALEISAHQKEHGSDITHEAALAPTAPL

B1: anti-SIRPα antibody 13 humanized (antibody, human IgG1, V domains shown)
VH: RQLVESGGGLVQPGGSLRLSCTASGFSLSSHGISWVRQAPGKGLEYIGTIGTGVITYFASWAKGRFTGSKTSSTAYMELSSLRSEDTAVYFCARGSAWNDPFDPWGQGTLVTVSS
VL: AIQMTQSPSSLSASVGDRVTITCQASQSVYGNNDLAWYQQKPGKAPKLLIYLASTLATGVPSRFSGSGSGTDFTLTISSLQPEDFATYYCLGGGDDEADNVFGGGTKVEIKR
notes: Humanized, human IgG1 LALA / kappa
As a reminder, the EC50 is the concentration giving half of the maximal effect. Low values mean higher potency in that assay, high ones lower potency in that assay. By Kd is commonly meant a measure of binding affinity in units of concentration. The low end stands for tighter binding, the high end for weaker binding. With B1, the 50% effective concentration (EC50) turned out to be 0.14 µg/mL in assay [1], 0.23 µg/mL in [2], 0.36 µg/mL in assay [4] and 0.44 µg/mL in [5]. The figures for the Kd in assay [3] and in assay [6] were 0.012 nM and less than 0.01 nM, respectively. Also, in the assay with human SIRPγ (huSIRPγ) [7], the binding result was “no binding”.

B2: anti-SIRPα antibody 11 humanized (antibody, human IgG1, kappa, L234A L235A, V domains shown)
VH: EVKVEESGGGLVQPGGSLRLSCAASGFSLSSYVMGWVRQAPGKGLEWVSIISSSGSPYYASWVNGRFTISKTSTTMDLQMNSLRAEDTAVYYCARVGPLGVDYFNIWGQGTTVTVSS
VL: DIQMTQSPSSLSASVGDRVTITCQAGQSINSYLAWYQQKPGKVPKLLIYYASTLESGVPSRFSGSGSGTDFTLTISSLQPEDVATYYCQSWHYISRSYAFGQGTKVEIKR
notes: as for B1
For the molecule B2, the EC50 in assay [1] was found to be 0.13 µg/mL; in [2] it was 0.3 µg/mL; in assay [4], 1.05 µg/mL; in assay [5], 0.32 µg/mL. In addition, the Kd in [3] stood at 0.14 nM; in assay [6], 41 nM. Also, the binding result in the assay with human SIRPγ (huSIRPγ) [7] is “no binding”.

B3: anti-SIRPα antibody 10 humanized (antibody, human IgG1, kappa, L234A L235A, V domains shown)
VH: KVEESGGGLVQPGGSLRLSCAASGFSLSSYVMGWVRQAPGKGLEWVSIISSSGSPYYASWVNGRFTISKDNSEGMVYLQMNSLRAEDTAVYYCARVGPLGVDYFNIWGQGTTVTVSS
VL: DIVMTQSPDSLAVSLGERATINCQAGQSINSYLAWYQQKPGQPPKLLIYYASTLESGVPDRFSGSGSGTDFTLTISSLQAEDVAVYYCQSWHYISRSYAFGGGTKLEIKR
notes: as for B1
For the molecule B3, the concentration giving a half-maximal response (EC50) in assay [1] worked out at 0.17 µg/mL; in [2] it was 0.2 µg/mL; in [4], 0.38 µg/mL; in assay [5], 0.27 µg/mL. The Kd in assay [3] is less than 0.01 nM; in assay [6] it was 3.2 nM. Further, the binding result with human SIRPγ (huSIRPγ) [7] was “no binding”.

B4: anti-SIRPα antibody 4 (antibody, human IgG1, kappa, L234A L235A, V domains shown)
VH: QSVEESGGRLGTPGTPLTLTCTVSGFSLSSYVMGWFRQAPGKGLEYIGIISSSGSPYYASWVNGRFTISKTSTTMDLKMNSPTTEDTATYFCARVGPLGVDYFNIWGPGTLVTVSL
VL: DIVMTQTPSSVEAAVGGTVTIKCQAGQSINSYLAWYQQKPGQRPKLLIYYASTLESGVPSRFKGSGSGTDYTLTISDLESADAATYYCQSWHYISRSYAFGGGTEVVVKR
notes: Chimeric: rabbit variable regions on human IgG1 LALA / kappa; also called chimeric antibody 4
With B4, the 50% effective concentration (EC50) in [8] was 0.025 µg/mL; in [9] it was more than 100 µg/mL; in assay [1], 0.12 µg/mL; in assay [2], 0.23 µg/mL; in [10], 0.053 µg/mL; in assay [11], 0.092 µg/mL. For the same molecule, the EC50 in the assay with human SIRPγ (huSIRPγ) [12] is more than 100 µg/mL; in assay [13] it was 0.099 µg/mL; in [4] it was 0.41 µg/mL; in [5], 0.18 µg/mL. Moreover, the Kd was less than 0.01 nM in [3] and 0.026 nM in assay [6].

B5: anti-SIRPα antibody 12 humanized (antibody, human IgG1, kappa, L234A L235A, V domains shown)
VH: VQLVESGGRLVQPGTPLTLSCTVSGFSLSSYVMGWFRQAPGKGLEYIGIISSSGSPYYASWVNGRFTISKTSTTMDLKMNSLRSEDTATYFCARVGPLGVDYFNIWGPGTLVTVSS
VL: DIVMTQTPSSVEAAVGGTVTIKCQAGQSINSYLAWYQQKPGQRPKLLIYYASTLESGVPSRFKGSGSGTDYTLTISDLESADAATYYCQSWHYISRSYAFGGGTEVVVKR
notes: as for B1
Regarding B5, the EC50 worked out at 0.2 µg/mL in assay [1], 0.46 µg/mL in [2], 0.1 µg/mL in assay [4] and 0.17 µg/mL in [5]. The values for the Kd in assay [3] and in assay [6] were less than 0.01 nM and 0.059 nM, respectively. Further, the binding result with human SIRPγ (huSIRPγ) [7] is recorded as “no binding”.
